T1: interferon gamma (IFN-γ), murine, recombinant (mouse) (UniProt P01580)
T1 sequence (looked up): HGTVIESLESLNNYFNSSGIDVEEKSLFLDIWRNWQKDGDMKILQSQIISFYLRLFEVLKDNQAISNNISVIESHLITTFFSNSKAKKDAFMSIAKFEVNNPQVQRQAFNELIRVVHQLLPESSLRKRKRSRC

B1: ^89Zr-anti-IFN-γ labeled-antibody conjugate (AN-18 conjugated to p-SCN-Bn-desferrioxamine and labeled with ^89Zr) (antibody, rat IgG1, V domains shown)
VH: QVQLKESGPGLVQPSQTLSLTCTVSGFSLDSYNVHWVRQPPGKGLEWMGRMKYNGDTSYNSALKSRLRISRDTSKNQVFLKMNSLQTDDTGTYYCTRDWHYGYPSPYFEFWGQGVMVTVSS
VL: DVQMTQSPSYLAASPGESVSISCKASKNINTYLAWYQEKPGKTNKLLIYSGSTLQSGTPSRFSGSGSGTDFTLTIRSLEPEDFAVYYCQQHNEYPLTFGSGTKLEVKR
modifications: p-SCN-Bn-Desferrioxamine (DFO) conjugated to the antibody (Ab:DFO 1:5), chelating ^89Zr; sites not stated

Key:
[1] = molecular target: T1, interferon gamma (IFN-γ), murine, recombinant (mouse); assay: Octet (BLI) analysis of binding affinity; format not stated
[2] = molecular target: T1, interferon gamma (IFN-γ), murine, recombinant (mouse); assay: cell-based or functional assay
[3] = molecular target: T1, interferon gamma (IFN-γ), murine, recombinant (mouse); assay: radioligand cell assay: TUBO cells preincubated with recombinant IFN-γ (10 ng/mL), washed, then incubated with tracer 1 h at 37 C; acid-wash fraction read by gamma counter; background without IFN-γ 1.13 ± 0.28%

Molecule	Kd [1] [nM]	internalization (% internalized activity) in TUBO cells preincubated with IFN-γ [2] [%]	surface binding (% of activity) [3] [%]
anti-IFN-γ diabody (homodimer of the single chain Fv derived from clone AN18, produced in CHO cells)	37.9		
B1		3.93	13.6

From US20230338589A1
